Measurements as given in patent publication US6602854B1, “Branched multimeric Apo A-I agonist compounds” (priority 1997, dated 2003).
Where no end group is shown, it is not given here. [ ]: non-standard residue; d: D form. Nal = non-natural residue; Aib = CC(C)(N)C(=O)O

Columns and labels:
[1] = Circular dichroism: degree of helicity (free, SUVs, micelles, TFE); settings: for He (%) free: percent helicity of free, unbound peptide; for He (%) SUVs: percent helicity of peptide-SUV complexes; for He (%) TFE: percent helicity of peptide-TFE solution; for He (%) mics: percent helicity of peptide-micelle complexes
Method: Far UV circular dichroism spectra were recorded between 190 and 260 nm (in 0.5 nm or 0.2 nm increments) with a AVIV62DS spectrometer (AVIV Associates, Lakewood, N.J., USA) equipped with a thermoelectric cell holder and sample changer. The instrument was calibrated with (+)-10-camphoric acid. Between one and three scans were collected for each sample, using 10 cm, 5 cm, 1 cm and 0.1 cm path length quartz Suprasil cells, respectively, for peptide concentrations of 10^−7 M to 10^−4 M. The bandwidth was fixed at 1.5 nm and the scan speed to 1 s per wavelength step. The reported data are the mean of at least 2 or 3 independent measurements.
After background substraction, spectra were converted to molar ellipticity (θ) per residue in deg. […] dmol^−1. The peptide concentration was determined by amino acid analysis and also by absorption spectrometry on a Perkin Elmer Lambda 17 UV/Visible spectrophotometer when the peptide contained a chromophore (tryptophane, dansyl, naphtylalanine).
CD spectra were obtained with free, unbound peptide (5 μM in 5 mM phosphate buffer, pH 7.4); with peptide-SUV complexes (20:1 EPC:Chol., Ri=30 and Ri=50); with peptide-micelle complexes (1-myristoyl-2-hydroxy-sn-glycero-3-phosphatidyl choline, Ri=100); and with free, unbound peptide in the presence of 2,2,2-trifluoroethanol (TFE) (5 μM peptide, 90% vol TFE).
The SUVs were obtained by dispersing the lipids (10 mM, 20:1 EPC:Chol., Avanti Polar Lipids, Ala.) in phosphate buffer (5 mM, pH 7.4) with bubbling N2 for 5 min., followed by sonication (1.5 hr.) in a bath sonicator. The homogeneity of the preparation was checked by FPLC.
The micelles were obtained by dispersing the lipid (6 mM 1-myristoyl-2-hydroxy-sn-glycero-3-phosphatidyl choline, Avanti Polar Lipids, AL) in phosphate buffer (5 mM, pH 7.4) with bubbling N2 for 5 min., followed by vortexing.
To obtain the peptide-SUV complexes, SUVs were added to the peptide (5 μM in 5 mM phosphate buffer, pH 7.4) at a phospholipid-peptide molar ratio (Ri) of 30 or 50.
To obtain the peptide-micelle complexes, micelles were added to the peptide (5 μM in 5 mM phosphate buffer, pH 7.4) at a Ri of 100.
All spectra were recorded at 37° C. The stability of peptide 4 (SEQ ID NO:4) as a function of temperature (both free in buffer and in micelles) was determined by recording spectra at a series of different temperatures.
The degree of helicity of peptide 4 (SEQ ID NO:4) as a function of concentration was also determined.
The degree of helicity of the peptides in the various conditions was determined from the mean residue ellipticity at 222 nm (Chen et al., 1974, Biochemistry 13:3350-3359) or by comparing the CD spectra obtained to reference spectra available on databases (16 helical reference spectra from Provencher & Glockner, 1981, Biochemistry 20:33-37; denatured protein reference spectra from Venyaminov et al., 1993, Anal. Biochem. 214:17-24) using the CONTIN curve-fitting algorithm version 2DP, CD-1 pack (Aug. 1982) (Provencher, 1982, Comput. Phys. Commun. 27:213-227, 229-242). Acceptable fit was determined using the statistical analysis methodology provided by the CONTIN algorithm.

[2] = HDL cholesterol in rabbits after injection of phospholipid/peptide complexes; format: in vivo, Male New Zealand White rabbits
Method: Small discoidal particles consisting of phospholipid (DPPC) and peptide were prepared following the cholate dialysis method. The phospholipid was dissolved in chloroform and dried under a stream of nitrogen. The peptide was dissolved in buffer (saline) at a concentration of 1-2 mg/ml. The lipid film was redissolved in buffer containing cholate (43° C.) and the peptide solution was added at a 3:1 phospholipid/peptide weight ratio. The mixture was incubated overnight at 43° C. and then dialyzed at 43° C. (24 hr.), room temperature (24 hr.) and 4° C. (24 hr.), with three changes of buffer (large volumes) at temperature point. The complexes were filter sterilized (0.22 μm) for injection and storage at 4° C.
Male New Zealand White rabbits (2.5-3 kg) were injected intravenously with a dose of phospholipid/peptide complex (5 or 10 mg/kg bodyweight, expressed as peptide) in a single bolus injection not exceeding 10-15 ml. The animals were slightly sedated before the manipulations. Blood samples (collected on EDTA) were taken before and 5, 15, 30, 60, 240 and 1440 minutes after injection. The hematocrit (Hct) was determined for each sample. Samples were aliquoted and stored at −20° C. before analysis.
Plasma Lipids. The total plasma cholesterol, plasma triglycerides and plasma phospholipids were determined enzymatically using commercially available assays according to the manufacturer's protocols (Boehringer Mannheim, Mannheim, Germany and Biomerieux, 69280, Marcy-L'étoile, France).
Lipoprotein Profiles. The plasma lipoprotein profiles of the fractions obtained after the separation of the plasma into its lipoprotein fractions were determined by spinning in a sucrose density gradient. The fractions were collected and in each individual fraction the phospholipid and cholesterol content was measured enzymatically.

Row | Substance | He (%) free [1] | He (%) SUVs [1] | He (%) TFE [1] | He (%) mics [1] | also measured
1 | 220 (PVLDLFRELLEELQKKLK) [compound 220] | 27% | 54% | 64% | 64% | 
2 | 223 (PVLDAFRELLEALAQLKK) [compound 223] | 21% | 23% | 51% | 56% | 
3 | 240 (Ac-DWLKAFYDKVAEKLKEAF-NH2) [compound 240] | 16% | 59% | 57% | 68% | 
4 | DWFKAFYDKVAEKFKEAF [peptide 243, reference compound] | 10% | 50% |  | 64% | 
5 | DWLKAFYDKVAEKLKEAF [peptide 244, reference compound] | 9% | 13% | 48% | 40% | 
6 | DWLKAFYDKVFEKFKEFF [peptide 245, reference compound] | 38% | 70% |  | 77% | 
7 | EWLKAFYEKVLEKLKELF [peptide 248, reference compound] | 18% | 13% |  | 45% | 
8 | EWLKAFYEKVLEKLKELF* [peptide 238, reference compound] | 49% | 60% | 58% | 72% | 
9 | LDDLLQKWAEAFNQLLKK [peptide 237, reference compound] | 30% | 45% |  | 66% | 
10 | PVLDEFREKLNEALEALKQKLK [peptide 94, reference compound] | 18% | 27% | 63% | 70% | 
11 | PVLDEFREKLNERLEALKQKLK [peptide 109, reference compound] | 19% | 23% | 58% | 45% | 
12 | PVLDFFRELLNEXLEALKQKLK (PVLDFFRELLNE[Aib]LEALKQKLK) [peptide 25] | 46% |  | 93% | 82% | 
13 | PVLDLFKELLNELLEALKQKLK [peptide 7] | 77% | 85% | 73% | 89% | 
14 | PVLDLFRELLNEGLEALKQKLK [peptide 8] | 20% | 61% | 93% | 90% | % helicity in the presence of TFE [1]: 93%; helical structure in the presence of lipids [1]: 61-93%; % Helicity Free ([1]; peptide concentration 5.0 μM, free in buffer): 20%
15 | PVLDLFRELLNELLEWLKQKLK [peptide 3] | 70% | 80% | 95% | 95% | Increase (%) in HDL cholesterol ([2]; 10 mg/kg as peptide/DPPC complexes, 15 min): 84%; Increase (%) in HDL cholesterol ([2]; 10 mg/kg as peptide/DPPC complexes, 30 min): 71%; Increase (%) in HDL cholesterol ([2]; 10 mg/kg as peptide/DPPC complexes, 60 min): 60%; Increase (%) in HDL cholesterol ([2]; 10 mg/kg as peptide/DPPC complexes, 240 min): 14.5%
16 | PVLDLFRELLNELLEZLKQKLK (PVLDLFRELLNELLE[Nal]LKQKLK; not fully specified) [peptide 1, Z is Nal] | 77% | 81% | 69% | 85% | Increase (%) in HDL cholesterol ([2]; 5 mg/kg as peptide/DPPC complexes, 15 min): 24.3%; Increase (%) in HDL cholesterol ([2]; 5 mg/kg as peptide/DPPC complexes, 30 min): 95%; Increase (%) in HDL cholesterol ([2]; 5 mg/kg as peptide/DPPC complexes, 60 min): 40.7%; Increase (%) in HDL cholesterol ([2]; 5 mg/kg as peptide/DPPC complexes, 240 min): 29%
17 | PVLDLFRELLNELWEALKQKLK [peptide 28] | 82% | 90% | 81% | 98% | 
18 | PVLDLFRELLNEXLEALKQKLK (PVLDLFRELLNE[Aib]LEALKQKLK) [peptide 6] | 57% | 70% | 99% | 93% | 
